The text below walks through data of patent publication US20030171565A1 (VANDERBILT UNIVERSITY, published 2003).

This assay has as its target T1, tyrosine phosphatase SHP-1 (human, UniProt P29350 1-595).
T1 construct: mature
The assay can be described thus: anti-PZR immunoprecipitation from pervanadate-treated cells, Western blot.

T1 sequence (P29350 whole entry): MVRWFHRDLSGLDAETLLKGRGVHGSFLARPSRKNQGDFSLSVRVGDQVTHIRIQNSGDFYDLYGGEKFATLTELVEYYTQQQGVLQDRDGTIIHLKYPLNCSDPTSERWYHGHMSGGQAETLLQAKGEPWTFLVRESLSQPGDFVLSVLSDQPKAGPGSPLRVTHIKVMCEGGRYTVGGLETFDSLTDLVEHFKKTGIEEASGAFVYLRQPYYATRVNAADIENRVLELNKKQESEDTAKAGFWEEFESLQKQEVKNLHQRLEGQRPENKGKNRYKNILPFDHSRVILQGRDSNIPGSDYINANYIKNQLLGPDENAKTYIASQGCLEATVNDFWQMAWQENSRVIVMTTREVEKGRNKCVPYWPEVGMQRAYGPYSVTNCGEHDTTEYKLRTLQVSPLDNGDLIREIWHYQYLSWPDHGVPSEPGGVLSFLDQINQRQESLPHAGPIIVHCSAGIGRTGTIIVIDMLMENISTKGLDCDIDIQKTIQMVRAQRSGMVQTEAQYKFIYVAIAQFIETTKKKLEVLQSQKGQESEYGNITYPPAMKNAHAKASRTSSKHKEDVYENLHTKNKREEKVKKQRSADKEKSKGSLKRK

B1: protein zero related (PZR), tyrosine-phosphorylated (receptor)
chain: SALEVYTPKEIFVANGTQGKLTCKFKSTSTTGGLTSVSWSFQPEGADTTVSFFHYSQGQVYLGNYPPFKDRISWAGDLDKKDASINIENMQFIHNGTYICDVKNPPDIVVQPGHIRLYVVEKENLPVFPVWVVVGIVTAVVLGLTLLISMILAVLYRRKNSKRDYTGCSTSESLSPVKQAPRKSPSDTEGLVKSLPSGSHQGPVIYAQLDHSGGHHSDKINKSESVVYADIRKN
modifications: phosphotyrosine at 241 and 263 (cells treated with pervanadate, or cells expressing catalytically inactive SHP-2); N-glycosylated
notes: It was assayed in Triton X-100 cell extracts or as protein purified from 293 cells; also called hPZR; p43
Regarding B1, the binding result is “no binding”.
